From paper PMC3946371

Target: Vaccinia virus D4 with non-cleavable N-terminal His-tag, co-expressed with MBP-A20(1-50) (vaccinia virus (Copenhagen strain)) (UniProt P20536)
Assay: SEC-MALS

For “First 50 amino acids of vaccinia virus A20, wild type, released from MBP by TEV (from UniProt P20995 1-50) (domain or fragment)”, the stoichiometry N was 1.
